{"source": "patent US20160355836", "key": {"GST-PT8-CTS517A": {"tested_on": "T1, GST-PT8-CTS517A", "T1 sequence": "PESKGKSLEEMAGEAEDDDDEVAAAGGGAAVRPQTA"}, "GST-PT8-CTS512A": {"tested_on": "T2, GST-PT8-CTS512A", "T2 sequence": "T1 sequence with S7A, A12S"}, "[1]": {"tested_on": "T3, GST-PT8-CTS517 (not phosphorylated)", "T3 sequence": "T1 sequence with A12S"}}, "note": "Positions count from the first letter of the chain named."}
{"substance": "GST-CK2α3", "values": [{"measurement": "in vitro phosphorylation assay ([γ-32P]ATP)", "setting": "GST-PT8-CTS517A", "result": "Mutation of S517, but not S512, prevented phosphorylation of PT8-CT"}, {"measurement": "in vitro phosphorylation assay ([γ-32P]ATP)", "setting": "GST-PT8-CTS512A", "result": "Mutation of S517, but not S512, prevented phosphorylation of PT8-CT"}, {"measurement": "in vitro phosphorylation assay ([γ-32P]ATP)", "setting": "[1]", "result": "the PT8-CT was phosphorylated by the catalytic subunit CK2 α3"}]}
